The assay concerns the target T1, biotinylated recombinant human CD70 (extracellular domain, Fc tag) (human, UniProt P32970 52-193, chemically biotinylated using 5-fold excess of Biotin).
T1 construct: Bought from ACROBiosystems; also called bio.hCD70; Bio.CD70; not shown: C-terminal Fc Tag of the bought protein (ACROBiosystems)
T1 sequence: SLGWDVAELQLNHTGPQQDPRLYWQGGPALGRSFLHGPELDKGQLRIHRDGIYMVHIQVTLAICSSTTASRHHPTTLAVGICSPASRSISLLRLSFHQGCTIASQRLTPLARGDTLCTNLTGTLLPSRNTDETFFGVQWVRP
The experiment in a line: crude cell extract HTRF with 2 nM biotinylated hCD70. The text has this:
Selected clones bind specially to human CD70 as shown by crude extract HTRF Individual selected ankyrin repeat proteins specifically binding to hCD70 in solution were identified by a Homogeneous Time Resolved Fluorescence (HTRF) assay using crude extracts of ankyrin repeat protein-expressing Escherichia coli cells using standard protocols. Ankyrin repeat protein clones selected by ribosome display were cloned into derivatives of the pQE30 (Qiagen) expression vector (pMPDV25), transformed into E. coli XL1-Blue (Stratagene), plated on LB-agar (containing 1% glucose and 50 μg/ml ampicillin) and then incubated overnight at 37° C. […]
The extract of each lysed clone was applied as a 1:2000 dilution (final concentration) in PBSTB (PBS supplemented with 0.1% Tween 20® and 0.2% (w/v) BSA, pH 7.4) together with 2 nM (final concentration) biotinylated hCD70, 1:400 (final concentration) of anti-strep-Tb HTRF antibody—FRET donor conjugate (Cisbio) and 1:400 (final concentration) of anti-6His-D2 antibody FRET acceptor conjugate (Cisbio) to a well of 384 well plate and incubated for 60 minutes at RT. The HTRF was read-out on a Tecan M1000 using a 340 nm excitation wavelength and a 665±10 nm emission filter.
(TR-FRET usually uses a lanthanide donor and a delayed reading to cut background.)

The results in this text go back to patent US20250074994A1 (Molecular Partners, published 2025).

B1: DARPin® protein #4 (designed binder)
chain: MRGSHHHHHHGSDLGFKLLQAALRGQDDEVRILLAAGADVNAKDQLGTTPLHLAAHYGHLEIVEVLLKAGADVNAKDVWGDTPLHLAAQHGHLEIVEVLLKAGADVNAQDRAGYTPADLAAQEGHEDIAEVLQKAA
Regarding B1, the binding result was “binds”.
